Assays:
[1] = target: mAb1 YTE-AAA (asymmetrical human IgG1, one Fc heavy chain YTE, the other AAA) (human); assay: SPR; Biacore T200, C1 chip, 25 °C, HBS-EP+ (10 mM HEPES, 150 mM NaCl, 3 mM EDTA, 0.05% P20, pH 7.4); antibody Fc variants captured via anti-human Fab-kappa nanobody (about 60 RU), Fc only variants amine-coupled (60-80 RU), cytokine-Fc fusions captured via anti-PGLALA F(ab')2 (35-40 RU); PRYSPRY domain injected in five two-fold dilutions from 500, 1000 or 2000 nM; global fit, Langmuir 1:1, affinity mode
Ustekinumab (human) = assay: as above
[2] = target: mAb2 WT-AAA (asymmetrical human IgG1, one Fc heavy chain H310A, H433A, Y436A) (human); assay: as above
[3] = target: mAb1 YTE (human IgG1, M252Y, S254T, T256E) (human); assay: as above
Briakinumab (human) = assay: as above
[4] = target: mAb2 WT KiH (human IgG1, knob-into-hole, Fc wild type at the TRIM21 site) (human); assay: as above
[5] = target: anti-AAV2 capsid antibody A20 WT (bivalent, human IgG1 Fc WT) (human); assay: as above
[6] = target: mAb1 HH-AAA (asymmetrical human IgG1, one Fc heavy chain HH, the other AAA) (human); assay: as above
[7] = target: mAb1 WT-AAA (asymmetrical human IgG1, one Fc heavy chain H310A, H433A, Y436A) (human); assay: as above
mAb1 WT-AAA (human) = assay: mass photometry; 200 nM mAb1 Fc variant pre-incubated with 4000 nM PRYSPRY domain, analysed at a 1:250 dilution; PBS pH 7.4, room temperature

Sequence of Ustekinumab (human) (heavy, as listed by the source, chain 1 of 2): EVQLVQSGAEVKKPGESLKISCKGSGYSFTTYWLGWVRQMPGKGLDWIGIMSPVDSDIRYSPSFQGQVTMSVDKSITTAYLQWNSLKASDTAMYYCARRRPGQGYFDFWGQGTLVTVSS
Sequence of Ustekinumab (human) (light, as listed by the source, chain 2 of 2): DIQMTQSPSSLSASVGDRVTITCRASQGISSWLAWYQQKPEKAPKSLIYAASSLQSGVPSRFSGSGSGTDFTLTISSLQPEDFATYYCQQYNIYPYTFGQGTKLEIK
Sequence of anti-AAV2 capsid antibody A20 WT (bivalent, human IgG1 Fc WT) (human) (heavy, as listed by the source, chain 1 of 2): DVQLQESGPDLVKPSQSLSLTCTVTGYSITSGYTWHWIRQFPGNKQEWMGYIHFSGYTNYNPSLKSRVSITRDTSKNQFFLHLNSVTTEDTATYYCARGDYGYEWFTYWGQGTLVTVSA
Sequence of anti-AAV2 capsid antibody A20 WT (bivalent, human IgG1 Fc WT) (human) (light, as listed by the source, chain 2 of 2): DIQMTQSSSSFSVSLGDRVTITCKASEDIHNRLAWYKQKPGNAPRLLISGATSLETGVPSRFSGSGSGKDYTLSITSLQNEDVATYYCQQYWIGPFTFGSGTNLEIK
Sequence of TRIM21 PRYSPRY domain (P19474 277-475): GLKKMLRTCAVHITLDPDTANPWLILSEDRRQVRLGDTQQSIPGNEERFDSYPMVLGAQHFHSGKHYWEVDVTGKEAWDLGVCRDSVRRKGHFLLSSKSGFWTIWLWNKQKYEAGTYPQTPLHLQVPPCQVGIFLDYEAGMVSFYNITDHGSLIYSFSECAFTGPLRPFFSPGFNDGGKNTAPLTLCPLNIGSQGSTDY
Sequence of Briakinumab (human) (heavy, as listed by the source, chain 1 of 2): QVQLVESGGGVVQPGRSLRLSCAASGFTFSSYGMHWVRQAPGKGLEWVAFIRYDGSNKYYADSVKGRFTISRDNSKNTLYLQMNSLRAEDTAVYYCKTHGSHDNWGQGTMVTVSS
Sequence of Briakinumab (human) (light, as listed by the source, chain 2 of 2): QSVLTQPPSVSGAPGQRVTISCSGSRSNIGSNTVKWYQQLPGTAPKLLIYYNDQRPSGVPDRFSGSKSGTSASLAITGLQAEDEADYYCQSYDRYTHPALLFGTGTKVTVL

Kd [1]: 0.0926 µM
koff [1]: 0.189 s⁻¹
kon [1]: 2.04e+06 M⁻¹ s⁻¹
Kd (Ustekinumab (human)): 0.0423 µM
koff (Ustekinumab (human)): 0.104 s⁻¹
kon (Ustekinumab (human)): 2.46e+06 M⁻¹ s⁻¹
Kd [2]: 0.0385 µM
koff [2]: 0.0901 s⁻¹
kon [2]: 2.34e+06 M⁻¹ s⁻¹
Kd [3]: 0.0748 µM
koff [3]: 0.16 s⁻¹
kon [3]: 2.14e+06 M⁻¹ s⁻¹
Kd (Briakinumab (human)): 0.0523 µM
koff (Briakinumab (human)): 0.115 s⁻¹
kon (Briakinumab (human)): 2.2e+06 M⁻¹ s⁻¹
Kd [4]: 0.0496 µM
koff [4]: 0.118 s⁻¹
kon [4]: 2.38e+06 M⁻¹ s⁻¹
Kd [5]: 0.0456 µM
koff [5]: 0.0876 s⁻¹
kon [5]: 1.92e+06 M⁻¹ s⁻¹
Kd [6]: 0.12 µM
koff [6]: 0.434 s⁻¹
kon [6]: 3.63e+06 M⁻¹ s⁻¹
kon [7]: 2.66e+06 M⁻¹ s⁻¹
stoichiometry N (mAb1 WT-AAA (human)): 1
Substance: TRIM21 PRYSPRY domain (from UniProt P19474-1 277-475) (domain or fragment)
